How the values were obtained:
[1] = target: CagI with a C-terminal strep-tag (residues 21-381) (Helicobacter pylori strain 26695); test: SEC-MALS
[2] = target: CagI N-terminal domain (CagI^N) (Helicobacter pylori strain 26695); test: SEC-MALS
[3] = target: CagI N-terminal domain (CagI^N) (Helicobacter pylori strain 26695); test: SEC-SAXS
[4] = target: CagI (untagged, residues 21 to 381) (Helicobacter pylori strain 26695); test: SEC-MALS

CagI with a C-terminal strep-tag (residues 21-381) (natural protein)
stoichiometry N [1]: 2

CagI N-terminal domain (CagI^N) (domain or fragment)
stoichiometry N [2]: 2
stoichiometry N [3]: 2

CagI (untagged, residues 21 to 381) (natural protein)
stoichiometry N [4]: 2
